Reference: patent US20170114108A1

Target: H4 tail (residues 1-30) of the H4ac indicator (UniProt P62805)
Assay: cell-based or functional assay

percent of cells discriminated from autofluorescence (FACS), H4ac indicator, 1 µM SAHA: 5 % of cells
percent of cells discriminated from autofluorescence (FACS), H4ac indicator, 2.5 µM SAHA: 20 % of cells
percent of cells discriminated from autofluorescence (FACS), H4ac indicator, 7.5 µM SAHA: 40 % of cells
percent of cells discriminated from autofluorescence (FACS), H4ac indicator, 10 µM SAHA: 45 % of cells
Sequence: TATA binding protein (TBP)-associated factor II (TAFII) bromodomain
